Assay results from patent publication US20240083991A1 (Pfizer, published 2024).
Residue numbers refer to the chain shown, from its start. “And” between values parts separate entries of the source, which are not always exact repeats. Equal values may be shown once. Read-outs that look alike come from different tables or passages of the source.

Experiments:
[1] = target: T1, human mature BMP9 (human, UniProt Q9UK05 320-429); assay: method not stated (legend of the crystal structure figure)
T1 construct: also called GDF2; Human BMP9-biotin
T1 sequence: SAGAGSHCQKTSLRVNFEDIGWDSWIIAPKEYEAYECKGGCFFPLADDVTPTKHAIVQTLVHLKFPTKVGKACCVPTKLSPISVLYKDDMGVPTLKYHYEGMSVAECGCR

[2] = target: T2, rat BMP9 (mature) (rat, UniProt M0RB87 320-430, Chemically biotinylated for capture on the SPR chip; sites not stated. Natural mature BMP9 is a disulfide-linked homodimer; one monomer chain is given.); assay: cell-based or functional assay
T2 sequence: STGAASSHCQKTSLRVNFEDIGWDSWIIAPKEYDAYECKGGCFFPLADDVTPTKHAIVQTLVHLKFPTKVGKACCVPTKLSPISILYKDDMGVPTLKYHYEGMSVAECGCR

[3] = target: T3, cyno BMP9 (mature) (cynomolgus monkey, UniProt G7PEU8 320-429); assay: cell-based or functional assay
T3 sequence: T1 sequence with A2T, D23N, V84I

[4] = target: T2, rat BMP9 (mature); assay: cell-based or functional assay; remark: listed apart in the source
[5] = target: T1, human mature BMP9; assay: cell-based or functional assay
[6] = target: T1, human mature BMP9; assay: cell-based or functional assay; remark: listed apart in the source
[7] = target: T2, rat BMP9 (mature); assay: cell-based or functional assay; remark: listed apart in the source
[8] = target: T3, cyno BMP9 (mature); assay: cell-based or functional assay; remark: listed apart in the source
[9] = target: T1, human mature BMP9; assay: cell-based or functional assay; remark: listed apart in the source
[10] = target: T1, human mature BMP9; assay: cell-based or functional assay; remark: listed apart in the source
[11] = target: T2, rat BMP9 (mature); assay: cell-based or functional assay; remark: listed apart in the source
[12] = target: T3, cyno BMP9 (mature); assay: cell-based or functional assay; remark: listed apart in the source
[13] = target: T1, human mature BMP9; assay: cell-based or functional assay; remark: listed apart in the source
[14] = target: T1, human mature BMP9; assay: cell-based or functional assay; remark: listed apart in the source
[15] = target: T1, human mature BMP9; assay: competition ELISA: antibody mixed with 0.6 nM BMP9-biotin, binding to coated BMPRII (1 µg/ml) detected
Protocol: For competition ELISAs, each receptor protein was coated on a 384-well ELISA plate at its optimal coating concentration, 20 μl/well in PBS-CMF at 4° C. overnight. The next day, plates were washed 3 times with PBS+0.05% TWEEN™ 20 and blocked with PBS+1% BSA for 1 hr at RT with shaking. Anti-BMP9 Abs were serially diluted 3-fold in PBS+1% BSA, starting from 100 nM, then mixed with the same volume of the optimal concentration of biotinylated BMP9. The final concentration of biotinylated BMP9 corresponded to the EC₉₀ for each receptor, as determined in a preliminary experiment described above.
Serially diluted Abs were incubated with biotinylated BMP9 for at least 15 min at RT. Plates were washed as before, followed by addition of serially diluted Abs and the biotinylated BMP9 mixture. After incubating for 1 hr at RT, plates were washed 3 times with PBS+0.05% TWEEN™ 20. Secondary antibody was added (HRP-Streptavidin from BioLegend, cat #405210, 1:2000), followed by 1 hr incubation at RT. Plates were washed as before, signal was developed using TMB substrate, and the reaction stopped with 0.18 M H₂SO₄. Absorbance was read at 450 nm on an ENVISION® plate reader (Perkin Elmer).

[16] = target: T3, cyno BMP9 (mature); assay: cell-based or functional assay; remark: listed apart in the source
[17] = target: T1, human mature BMP9; assay: cell-based or functional assay; remark: listed apart in the source

B1: Ab1076 (antibody, human IgG1, lambda, V domains shown)
VH: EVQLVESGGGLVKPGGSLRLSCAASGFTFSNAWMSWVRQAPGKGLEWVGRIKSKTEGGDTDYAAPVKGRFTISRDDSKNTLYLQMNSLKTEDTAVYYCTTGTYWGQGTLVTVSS
VL: QSVLTQPPSASGTPGQRVTISCSVTNTDIDIFNVHWYQQLPGTAPKLLFFHDYRPSGVSDRFSGSKSGTSASLAIVGLQSEDEGYYYCAGLDEAMRGPVFGGGTKLTVLG
notes: The heavy chain can be prepared with or without the C-terminal lysine
[1]
  fold increase in binding affinity relative to Ab93: ~20 fold
[2]
  IC50 (read off the curve): BMP9-induced pSMAD2 nuclear translocation, rat LSEC: ~0.5 nM
[3]
  IC50 (read off the curve): BMP9-induced pSMAD1/5/9 nuclear translocation, cynomolgus monkey PAEC: ~0.02 nM
[4]
  IC50 (read off the curve): BMP9-induced pSMAD1/5/9 nuclear translocation, rat LSEC: ~0.3 nM
[5]
  IC50 (read off the curve): BMP9-induced pSMAD2 nuclear translocation, HPAEC: ~0.03 nM
[6]
  IC50 (read off the curve): BMP9-induced pSMAD2 nuclear translocation, TIME cells: ~0.04 nM
[7]
  IC50, inhibition of BMP9-induced phospho-SMAD2 nuclear translocation in endothelial cells: 0.465 nM and 1 nM
[8]
  IC50, inhibition of BMP9-induced phospho-SMAD2 nuclear translocation in endothelial cells: 0.027 to 0.042 nM
[9]
  IC50 (read off the curve): BMP9-induced pSMAD2 nuclear translocation, TIME cells: ~0.04 nM
[10]
  IC50 (read off the curve): Human BMP9-induced pSMAD1/5/9 nuclear translocation, TIME cells: ~0.1 nM
[11]
  IC50 (read off the curve): Rat BMP9-induced pSMAD1/5/9 nuclear translocation, TIME cells: ~0.1 nM
[12]
  IC50 (read off the curve): Cyno BMP9-induced pSMAD1/5/9 nuclear translocation, TIME cells: ~0.1 nM
[13]
  IC50 (read off the curve): BMP9-induced pSMAD1/5/9 nuclear translocation, TIME cells: ~0.03 nM
[14]
  IC50 (read off the curve): BMP9-induced pSMAD1/5/9 nuclear translocation, TIME cells: ~0.03 nM
[15]
  IC50 (read off the curve): ~0.3 nM
[16]
  IC50 (read off the curve): BMP9-induced pSMAD2 nuclear translocation, cynomolgus monkey PAEC: 0.016 to 0.03 nM
[17]
  IC50 (read off the curve): BMP9-induced pSMAD1/5/9 nuclear translocation, HPAEC: ~0.04 nM
